These results are taken from publication PMC8531726.

In this data set the test system is T1, Zur (Pseudomonas aeruginosa), ORF:f39b2fc0.
T1 sequence: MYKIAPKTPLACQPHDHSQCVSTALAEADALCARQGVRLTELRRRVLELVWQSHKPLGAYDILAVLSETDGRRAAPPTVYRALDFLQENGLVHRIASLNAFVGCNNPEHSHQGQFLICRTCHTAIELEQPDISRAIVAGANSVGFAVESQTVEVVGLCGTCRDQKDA
In words: EMSA. The conditions noted are these: EMSA: 30 ng DNA, 500 nM Zur, 5X Zn-less binding buffer (50 mM Tris, 200 mM KCl, 50 mM MgCl2, 5 mM DTT, 25% glycerol; 5X [sic], pH not given), 5 uM ZnCl2 …. For orientation: Mobility shift assays separate free from complexed probe on a gel.

With “GGCTGGGCTGGTCGTCGGAAAAGAGGGATGAGTATCACAGCCTGGCGGCGAGAAGCGAGATAGAGCCGGGCATTGTATTGCGAGGCCGGAATCGAACTGGTAGCGTTATAGTATATCATTTCTTTTCTGGTGCGATTTCCCATGAGAGTCAGTGTGTCGCTTGTCCTCGGTGTCGGCCTCGGTTGCAGCAGTCCGGCGCTCTGGGCGGAAACGGAAAGTCCCGCGG (double strand) [pzrmA]”, the binding entry is on record as “binds”.

Take “AGAAGTCCTGCTGGGCTTCGTCCATGTAGGCAGCGTCGGGCTGGGCAAGCAGTTCCTGTTCGGTCATGGGCTGAACCTGGGAAATTTAAAACGTTATACTATAACAATTAACACCACAATCGATGGCCCGCCAATCGCCTTCCGGCTACCCTGGGCCCACGTCATCCCGGGATCCACCGATGCGCCGCGTCCTCCGCCTTTACT (double strand) [pdksA2]”: the binding result is given as “binds”.

As to “ATGGGCCTGGGCGGCGAACGGCAGCAAGACGAGGGCTAACAGCAGTGGGCGCATGAACGGGACTCCGGCAAGGAAGGAAAAGAGTTTGTTACGTTATAACGAATTTTTCCGCCTGCCTAGCCTGGCCGATTTGGCCCCTACGCGCCGACGTGGGAGCATGGCGCGATTCGCTTGTGGAGAAAC (double strand) [pPA4063]”, the binding entry is “binds”.

Take “ACTTTCCCGTTCCTCTTCGCCGGCAGGCATGCGGACATTGCCGCTGCACGTCGGCACGACGCCATGCAGAGTGGCTACGCGGGTCTACCGACACAAAAAGAAATAATATAACATCCCAATAAATACGCCGATCCGACCCCGTCGCCCTTCCTCCGGGAAGGGCCTGGGTTCGCTTTGGCCTGAAAAAAGTCCGACCCA (double strand) [pznuD]”: the binding result is reported as “binds”.

As to “CATAGCAGGCCGGCGTGAAGAAAATGTGATGACCCGGGAAGCTGCGCCAGGGCGTGGGGTCCGGCGAAGAAAGACTGCACAAGCGAATTGTTATAGTATAACATTTTATTCAATCCAGATCGTTCAAGGCTTGACTGGAAACGGTGCGGATGTTCCCATCCGGCCCGTTCCAGGTGCCTCCTGCCGCCGCGCAGGAGGTGAAACGGGAAGCCGGTGCGTCACTTCGGTGA (double strand) [pPA2911]”, the binding result is given as “binds”.

For “CTCTGCCAGACCAGTTCCAGCACGCGCCGCCGCAGTTCGGTCAGGCGCACGCCCTGGCGCGCGCACAGCGCATCGGCCTCGGCCAGCGCGGTGCTGACGCACTGGCTGTGGTCATGGGGCTGGCAGGCCAGCGGGGTCTTGGGCGCAATCTTGTACATGGGCTGCGACGCTCGAGGGTAGAGACGTTATTATATTACCCGCTAACCACCTTTCA (double strand) [pznuA]”, the binding entry is listed as “binds”.

In the case of “GTGCTGCACACAGACTCTCGTCTTCCAGTCAAGAGCCTTGGGATGCAGACTGTTTTTCAAATCATGACAACTTCTTAACGCGCATTGTTATAAAGTTGCGGGCGTTTGCGCCGGCCTGGCCGGTACCTTCGAGTTTTGCCTGGAGTGAAGATGAGAGTCGACCTGGAC (double strand) [pPA2439]”, the binding entry is “binds”.

As for “TCGAGCAGCCGAATGGTCGCCGGGAACTCTTTCCGGAGTTGCGAATTATTCTTATCGGAGTAATATGTAACTATATAACATTATGTAGGAGGCATCCCCATGAAACCCGGCATCCATCCCGAATACCGTCCCGTCCTGTTCCATGACACCTCGGCCGACGTGTACTTCCTGATCGGCTCCACC (double strand) [prpmE2]”, the binding result is “binds”.

For the sequence “GAGCGCCATGATCTGCTCGGTTGCGGTCATCTTTCCTCCTGGGGGGCATGCCCGGTTGAGAGTGGGGTCCTGTGCTTCGAGGGATACGGCGAGCGAGACGTTCCCTCGCCTCGATGAAGAAGAAACGGCGGGCATTCTTCATTCGAAGAAATGTTATGTTATAACTTATAAGTATTTATAATTCATACCTGCCGACCATGACCCCCCATTCCTCCCCGCACCGTCTTCCTCCGCTGCGGCTGGCCCGCGCCGTGCCGTTCCTCTACCTGCTTC (double strand) [pPA1922]”, the binding result is on record as “binds”.
